Experimental findings from patent US20230034906A1 (TRINOMAB BIOTECH, published 2023) are described below.

The assay has as its target T1, HCMV gB glycoprotein of standard strain Towne (gB_Towne strain) (human cytomegalovirus, strain Towne, UniProt F5HB53 25-700).
T1 construct: also called antigen protein gB0049
Put plainly: SPR (Biacore), antibody captured on anti-human IgG (Fc) CM5 chip, gB glycoprotein as analyte.

B1: TRN1019 (antibody, V domains shown)
VH: QVQLVQSGAEVKKPGESLKISCKGSGYTFTNYWIGWVRQMPGAGLEWMAIIFPRDSYSAYSPSFQGRVTISVDKSISTAYLHWSSLEASDTAVYYCAIYNDLRSGNSWGQGTPLIVSS
VL: DIQMTQSPSSLSASVGDRVTITCRASQSITKYLNWYQQKPGRAPKLLIHTTSTLQSGVPSRFSGSGSGTDFTLTISSLQLEDFGTYYCQQSFSTLWTFGQGTKLDIKR
notes: Fully human antibody; kappa light chain
On to B1, for which the binding result is recorded as “binds”.
